Molecular target: T1, VACV G3-ectodomain, tag-free (G3-Ecto) (vaccinia virus (VACV), UniProt P68458 22-111)
T1 sequence: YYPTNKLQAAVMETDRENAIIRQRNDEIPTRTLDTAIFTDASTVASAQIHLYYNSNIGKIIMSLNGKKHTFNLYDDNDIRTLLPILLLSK
Experiment: crystal structure
Settings: both partners purified

B1: VACV L5-ectodomain, tag-free (L5-Ecto) (domain or fragment)
chain: NMFFMPKRKIPDPIDRLRRANLACEDDKLMIYGLPWMTTQTSALSINSKPIVYKDCAKLLRSINGSQPVSLNDVLRR
binding result: binds
